Test system: MS2 coat protein
Experiment: apparent KD of MS2 coat protein; designed switch direction (-1 OFF switch, 1 ON switch): -1; higher = weaker reporter binding
Method in brief: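 Three titration conditions were used: no input, 200 uM small-molecule ligand, and an oligonucleotide input. In each, SNAP-549-labelled MS2 coat protein was raised from 0.7 or 1.5 nM, doubling, to 3 µM over designed RNA switches transcribed on Illumina chips by stalled E. coli RNA polymerase. Curve fits of normalised cluster fluorescence gave values whose per-design median over clusters is the apparent KD.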

[1] = Eterna round: R95, input ligand: microRNA oligo, concentration not stated
[2] = Eterna round: R95, input ligand: FMN 200 uM
[3] = Eterna round: R95, input ligand: none
[4] = input ligand: microRNA oligo, concentration not stated

CCGCAAAUGGAGGAUAUCGUAUCGGAUACGAUACGAGAAGGCUAUACAUGAGGAUCACCCAUGUGUCCUAGCGG [Fiskers Ex 6 - 46] (puzzle: Exclusion 6)
apparent KD of MS2 coat protein [1]: 11.4 nM

CUCGUGUGAGGAUAUCUAUUCCACGGACGGGAGUCUUGAAGAGAGAAGGCACAUGAGGAUCACCCAUGUAAUAA [Latequ] (puzzle: Exclusion 4)
apparent KD of MS2 coat protein [1]: 107 nM

CUGGUCCGAGGAUAUAUUAUGUGAAACAUGAGGAUCACCCAUGUAAUAUGAUGGAUGUAAAUAGAAGGCGGGCUAG [Mat - Exclusion 5 - JL mod - D26] (puzzle: Exclusion 5)
apparent KD of MS2 coat protein [2]: 30.8 nM | apparent KD of MS2 coat protein [1]: 23.2 nM | apparent KD of MS2 coat protein [3]: 24.3 nM

GGAAAGUGAGGAUAUGGUAAAGUAAGUAUGUAGUAAGUAAUCCAGAAGGCACAUGAGGAUCACCCAUGUAAAUG [Mat - Exclusion 4 - D100] (puzzle: Exclusion 4)
apparent KD of MS2 coat protein [1]: 27.2 nM

AGCUGAGCAGGAUAUACAUGAGGAUCACCCAUGUUGGUCAAGCGACGAUAGUCGCAAUGUAGAAGGGCUCAGCU [E3/8-D2] (Eterna round: R97, puzzle: Exclusion 3)
apparent KD of MS2 coat protein (input ligand: FMN 200 uM): 114 nM | apparent KD of MS2 coat protein (input ligand: none): 357 nM

AAAUUACAAGCAAGAUCCUACAUGAGGAUCACCCAUGUGCUCGUCUUAUAAAGUACUAUCACGAAAGUGAUAGUACA [Mat - Sensor v3 - turn-off var 1 - Eli Mod - D58] (puzzle: Sensor v3, turn-off variant 1)
apparent KD of MS2 coat protein [2]: 256 nM | apparent KD of MS2 coat protein [1]: 304 nM | apparent KD of MS2 coat protein [3]: 329 nM

ACAAGCUUUUUGUUCGUCUUAUAAAAUCCUAAGAGGAAAACAUGAGGAUCACCCAUGUAACAAAGACGGACUCAUGU [Sesor Array 12 - Jieux - Sensor v3, turn-off variant 2] (puzzle: Sensor v3, turn-off variant 2)
apparent KD of MS2 coat protein [2]: 13.4 nM | apparent KD of MS2 coat protein [1]: 125 nM | apparent KD of MS2 coat protein [3]: 10.8 nM

AAUAAUAAAGUCAGGAUAUCUAGAGCUGCGGCUCUAGAGAAGGGACAUGAGGAUCACCCAUGUCACUCAAUAAU [BmEx4/3-D3] (Eterna round: R97, puzzle: Brourd's mod of Exclusion 4)
apparent KD of MS2 coat protein (input ligand: FMN 200 uM): 18.1 nM | apparent KD of MS2 coat protein (input ligand: none): 14.7 nM

AAUAAACUAGGAUAUACAUGAGGAUCACCCAUGUGUCGCCACGUGCUUGCUCACUCGUGUAGAAGGAGUACGGA [Atisan] (puzzle: Exclusion 3)
apparent KD of MS2 coat protein [1]: 33.4 nM

UAGGUGUGAGGAUAUGGUAAAGAUAAGAUGAUGAAAGAACUCCAGAAGGCACAUGAGGAUCACCCAUGUAGAAG [Mat - Exclusion 4 - Mod of JL - D30] (puzzle: Exclusion 4)
apparent KD of MS2 coat protein [2]: 27.9 nM | apparent KD of MS2 coat protein [1]: 22.8 nM | apparent KD of MS2 coat protein [3]: 24.7 nM

GUUCGACAUGAGGAUCACCCAUGUGAGGAUAUACGAUUAGCUGCUAGGUAGUUAGUAUGUAGAAGGUGCGUGUA [EX1 #71] (Eterna round: R97, puzzle: Exclusion 1)
apparent KD of MS2 coat protein (input ligand: FMN 200 uM): 36 nM | apparent KD of MS2 coat protein (input ligand: none): 34.3 nM

UAUUAGCAAGCGAGAUCCCACAUGAGGAUCACCCAUGUGCUCGUCUUAUAUAAGGUACUGUACGAUAGUACGGUACC [Mat - Sensor, turn-off var - Eli Mod - D28] (Eterna round: R97, puzzle: Sensor, turn-off variant 1)
apparent KD of MS2 coat protein (input ligand: FMN 200 uM): 16.7 nM | apparent KD of MS2 coat protein (input ligand: none): 14.6 nM

ACUGGUGCAGGAUAUACAAUCGUGCUUCGGCACGUAAGGUCACAUGAGGAUCACCCAUGUAGAAGGGCACCAGU [E2/2-D1] (Eterna round: R97, puzzle: Exclusion 2)
apparent KD of MS2 coat protein (input ligand: FMN 200 uM): 177 nM | apparent KD of MS2 coat protein (input ligand: none): 26.2 nM

AGUCCUGAUGUUAGGAUAUGCAACUAGCCAUUGUAGCAGAAGGAACAUGAGGAUCACCCAUGUACAAAGACCCA [Xeonbera] (puzzle: Brourd's mod of Exclusion 4)
apparent KD of MS2 coat protein [1]: 26.6 nM

GAUUAUGCGAGCUUUAGGGACAUGAGGAUCACCCAUGUUCGUCUUAUUGAUCUGGAUGCACUGACAUACCUAAAUCU [JMF 80] (puzzle: Sensor v3, turn-off variant 1)
apparent KD of MS2 coat protein [2]: 29 nM | apparent KD of MS2 coat protein [1]: 37.5 nM | apparent KD of MS2 coat protein [3]: 28.3 nM

UACAUGAGGAUCACCCAUGUUUUGUCGUGUAUGGUAUUUAUCUAGGAUAUCAAUUUAGUUAUGUAUGAGAAGGAGAAUAUUAAU [JMF's solution 78] (Eterna round: R96, puzzle: Exclusion NG 3)
apparent KD of MS2 coat protein (input ligand: FMN 200 uM): 43.7 nM | apparent KD of MS2 coat protein [4]: 33.9 nM | apparent KD of MS2 coat protein (input ligand: none): 46.4 nM

GUGUAGCAAGGAUAUACAUGAGGAUCACCCAUGUGAAUAAGAUAGAAUAAGAUAAAGUGUAGAAGGUGCAGUGU [Excluse me!!! 8 - Jieux - Exclusion 3] (Eterna round: R96, puzzle: Exclusion 3)
apparent KD of MS2 coat protein (input ligand: FMN 200 uM): 44.9 nM | apparent KD of MS2 coat protein [4]: 31.5 nM | apparent KD of MS2 coat protein (input ligand: none): 41.6 nM

CCUCGCAGGCAAGGAUAUCCUACAUUGUUCUGGCCCGGGCAUGCUACAUGAGGAUCACCCAUGUGGGAGAAGGUGCGCCACGGC [Design 31] (Eterna round: R96, puzzle: Exclusion NG 2)
apparent KD of MS2 coat protein (input ligand: FMN 200 uM): 48.3 nM | apparent KD of MS2 coat protein [4]: 28.1 nM | apparent KD of MS2 coat protein (input ligand: none): 42.2 nM

AAUUUCAUUGUGAGGAUAUGCCCAAAUAAAAGCGGGCAGAAGGCACAUGAGGAUCACCCAUGUCCUGCGGUUAU [salish99_bmx4_r4_152] (Eterna round: R97, puzzle: Brourd's mod of Exclusion 4)
apparent KD of MS2 coat protein (input ligand: FMN 200 uM): 471 nM | apparent KD of MS2 coat protein (input ligand: none): 37.5 nM

UUAAAUCAUGUAGGAUAUGCUUUGCGAAGCGAGGCAGAAGGACAUGAGGAUCACCCAUGUGCUAGCGUCCGAGUACGGAUGCAA [Mat - Exclusion NG 1 - Mod of JL - D62] (Eterna round: R96, puzzle: Exclusion NG 1)
apparent KD of MS2 coat protein (input ligand: FMN 200 uM): 214 nM | apparent KD of MS2 coat protein [4]: 62.6 nM | apparent KD of MS2 coat protein (input ligand: none): 83.3 nM

GCGCCAUCGUGAGAUGGCGUAAUUACAUGAGGAUCACCCAUGUAGGAUAUCGAUUGCUUUGCAGUCGAGAAGGGCGUGAUAAGU [JL ENG3 3.71] (Eterna round: R96, puzzle: Exclusion NG 3)
apparent KD of MS2 coat protein (input ligand: FMN 200 uM): 86 nM | apparent KD of MS2 coat protein [4]: 59.5 nM | apparent KD of MS2 coat protein (input ligand: none): 68.9 nM

AUACUCGUUGUGAGGAUAUCGUUUUCUUUACGGAUCGAGAAGGCACAUGAGGAUCACCCAUGUUUGACGUGAAU [JR_BMOE4_Sub093] (puzzle: Brourd's mod of Exclusion 4)
apparent KD of MS2 coat protein [1]: 30.8 nM

CAGUACUGCAGGCUUUGGGACAUGAGGAUCACCCAUGUUCGUCUUAUUGAUCUAGGUACGCUGACGUACCUAGAUCU [JL-sv1-2.14 Brourd mod] (puzzle: Sensor v3, turn-off variant 1)
apparent KD of MS2 coat protein [2]: 18.8 nM | apparent KD of MS2 coat protein [1]: 20 nM | apparent KD of MS2 coat protein [3]: 17.6 nM

UAGAAUCGAGGAUAUACAUGAGGAUCACCCAUGUGUGGCCACUUGGUGUGGUCGUCAGGUAGAAGGCGAUUACA [Exclusion 3 - Mod of Jieux's Gilly Gone Silly 23 v.4] (puzzle: Exclusion 3)
apparent KD of MS2 coat protein [2]: 26.9 nM | apparent KD of MS2 coat protein [1]: 30.9 nM | apparent KD of MS2 coat protein [3]: 39.4 nM

UUUUACGAAGGAUAUACAUUUUUUUUAUUAUUUUCAUUAUUACAUGAGGAUCACCCAUGUAGAAGGUCGAUUUU [My Design] (puzzle: Exclusion 2)
apparent KD of MS2 coat protein [1]: 27.7 nM

AGAUGGCGAGGAUAUACAUGAGGAUCACCCAUGUGAAGAAUAAUAGUGAGGAAGAAAAGUAGAAGGCGCUGUCA [Mat - Exclusion 3 - Mod of Salish D33] (puzzle: Exclusion 3)
apparent KD of MS2 coat protein [1]: 37 nM

AUAUAGAUGGUCAGGAUAUGCUAGUGAUAACAGUAGCAGAAGGGACAUGAGGAUCACCCAUGUGGAUAGCGCAC [Brourd's EX4 #6] (Eterna round: R97, puzzle: Brourd's mod of Exclusion 4)
apparent KD of MS2 coat protein (input ligand: FMN 200 uM): 123 nM | apparent KD of MS2 coat protein (input ligand: none): 37.1 nM

GUCAGCUCGUCAGGAUAUACAUGAGGAUCACCCAUGUGAUCAAUAGCAGCUUCGGCUGCAUACAUGUAGAAGGGACGAGCUGAC [ENG2/6-B1] (Eterna round: R96, puzzle: Exclusion NG 2)
apparent KD of MS2 coat protein (input ligand: FMN 200 uM): 55.6 nM | apparent KD of MS2 coat protein [4]: 18.4 nM | apparent KD of MS2 coat protein (input ligand: none): 35.5 nM

AAUAACGAGCCGAUCCUCCACAUGAGGAUCACCCAUGUGUUCGUCUUGUAAAGUACUAUCACGAAAGUGAUAGUACA [mod jandersonlee] (Eterna round: R97, puzzle: Sensor, turn-off variant 1)
apparent KD of MS2 coat protein (input ligand: FMN 200 uM): 1100 nM | apparent KD of MS2 coat protein (input ligand: none): 1040 nM

AUAAAGUCAGGAUAUCGAAGUGAGUGGAGAGGAGGGAGGUACGAGAAGGGACAUGAGGAUCACCCAUGUAGGAA [JR_Exclusion4)Sub006] (puzzle: Exclusion 4)
apparent KD of MS2 coat protein [2]: 25.5 nM | apparent KD of MS2 coat protein [1]: 24.2 nM | apparent KD of MS2 coat protein [3]: 21.9 nM

AGUAGUAGUAUCCGAUCGUACAUGAGGAUCACCCAUGUAGCUAGACGUGCACGCGAUGCUCGUCAGACUACCAGAUG [salish99_TOv1_r3_036] (puzzle: Sensor v3, turn-off variant 1)
apparent KD of MS2 coat protein [2]: 202 nM | apparent KD of MS2 coat protein [1]: 168 nM | apparent KD of MS2 coat protein [3]: 225 nM

GGAUCGAGAGUGAGGAUAUGCUGGUCCUUGGAUCAGCAGAAGGCACAUGAGGAUCACCCAUGUGAUUUCGAUCC [Mat - Exclusion 4 - Eli Mod - D40] (Eterna round: R97, puzzle: Brourd's mod of Exclusion 4)
apparent KD of MS2 coat protein (input ligand: FMN 200 uM): 34.6 nM | apparent KD of MS2 coat protein (input ligand: none): 18.1 nM

CUUUAGCUAGGAUAUACAUGAGGAUCACCCAUGUUAGCGGCCAAUUGGACCGCGGGUUGUAGAAGGAGCAUUAA [Atantiza] (puzzle: Exclusion 3)
apparent KD of MS2 coat protein [1]: 29.8 nM

CUAGUAUAUCAGGAUAUGAUUUUAUAUAUUGGAUCAGAAGGGAUGACAUGAGGAUCACCCAUGUUGAGGAGUGA [JR_Ex6_Sub039] (Eterna round: R97, puzzle: Exclusion 6)
apparent KD of MS2 coat protein (input ligand: FMN 200 uM): 257 nM | apparent KD of MS2 coat protein (input ligand: none): 103 nM

Reference: the supplement of paper PMC9170038
